Measured values from patent US20090192084A1.

How the values were obtained:
[1] = biological target: BTB/POZ domain-containing protein 2. BTBD2 (human) (UniProt Q9BX70); experiment: Flag co-IP, MudPIT MS, DMSO
Cullin 1 (human) [2] = biological target: Cullin 1 (human) (UniProt Q13616); experiment: Flag co-IP, MudPIT MS, DMSO
[3] = biological target: Kelch repeat and BTB domain-containing protein 7, KBTB7 (human) (UniProt Q8WVZ9); experiment: Flag co-IP, MudPIT MS, DMSO
[4] = biological target: RING finger protein 12. RLIM (human) (UniProt Q9NVW2); experiment: Flag co-IP, MudPIT MS, DMSO
RING finger protein 12. RLIM (human), sequence (Q9NVW2 whole entry): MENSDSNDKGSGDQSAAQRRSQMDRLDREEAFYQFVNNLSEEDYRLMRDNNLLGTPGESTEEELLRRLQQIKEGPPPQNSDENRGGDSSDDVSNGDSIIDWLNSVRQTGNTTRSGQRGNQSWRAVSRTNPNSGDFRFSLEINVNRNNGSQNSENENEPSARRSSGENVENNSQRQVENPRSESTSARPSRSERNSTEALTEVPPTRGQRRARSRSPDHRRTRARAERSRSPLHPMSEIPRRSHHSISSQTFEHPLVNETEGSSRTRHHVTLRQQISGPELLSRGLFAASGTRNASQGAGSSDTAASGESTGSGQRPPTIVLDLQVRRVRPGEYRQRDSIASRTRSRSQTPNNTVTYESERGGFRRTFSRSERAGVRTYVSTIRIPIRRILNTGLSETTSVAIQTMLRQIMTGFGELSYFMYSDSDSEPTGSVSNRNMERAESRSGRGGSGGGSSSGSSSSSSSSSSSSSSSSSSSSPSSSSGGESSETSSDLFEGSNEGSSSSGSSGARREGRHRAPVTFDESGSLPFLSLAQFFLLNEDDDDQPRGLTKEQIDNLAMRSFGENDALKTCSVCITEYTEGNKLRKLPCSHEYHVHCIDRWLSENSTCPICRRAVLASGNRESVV

[5] = biological target: Ubiquitin conjugation factor E4 B, UBE4B (Ufd2ortholog) (human) (UniProt O95155); experiment: Flag co-IP, MudPIT MS, DMSO
Ubiquitin conjugation factor E4 B, UBE4B (Ufd2ortholog) (human), sequence (O95155 whole entry): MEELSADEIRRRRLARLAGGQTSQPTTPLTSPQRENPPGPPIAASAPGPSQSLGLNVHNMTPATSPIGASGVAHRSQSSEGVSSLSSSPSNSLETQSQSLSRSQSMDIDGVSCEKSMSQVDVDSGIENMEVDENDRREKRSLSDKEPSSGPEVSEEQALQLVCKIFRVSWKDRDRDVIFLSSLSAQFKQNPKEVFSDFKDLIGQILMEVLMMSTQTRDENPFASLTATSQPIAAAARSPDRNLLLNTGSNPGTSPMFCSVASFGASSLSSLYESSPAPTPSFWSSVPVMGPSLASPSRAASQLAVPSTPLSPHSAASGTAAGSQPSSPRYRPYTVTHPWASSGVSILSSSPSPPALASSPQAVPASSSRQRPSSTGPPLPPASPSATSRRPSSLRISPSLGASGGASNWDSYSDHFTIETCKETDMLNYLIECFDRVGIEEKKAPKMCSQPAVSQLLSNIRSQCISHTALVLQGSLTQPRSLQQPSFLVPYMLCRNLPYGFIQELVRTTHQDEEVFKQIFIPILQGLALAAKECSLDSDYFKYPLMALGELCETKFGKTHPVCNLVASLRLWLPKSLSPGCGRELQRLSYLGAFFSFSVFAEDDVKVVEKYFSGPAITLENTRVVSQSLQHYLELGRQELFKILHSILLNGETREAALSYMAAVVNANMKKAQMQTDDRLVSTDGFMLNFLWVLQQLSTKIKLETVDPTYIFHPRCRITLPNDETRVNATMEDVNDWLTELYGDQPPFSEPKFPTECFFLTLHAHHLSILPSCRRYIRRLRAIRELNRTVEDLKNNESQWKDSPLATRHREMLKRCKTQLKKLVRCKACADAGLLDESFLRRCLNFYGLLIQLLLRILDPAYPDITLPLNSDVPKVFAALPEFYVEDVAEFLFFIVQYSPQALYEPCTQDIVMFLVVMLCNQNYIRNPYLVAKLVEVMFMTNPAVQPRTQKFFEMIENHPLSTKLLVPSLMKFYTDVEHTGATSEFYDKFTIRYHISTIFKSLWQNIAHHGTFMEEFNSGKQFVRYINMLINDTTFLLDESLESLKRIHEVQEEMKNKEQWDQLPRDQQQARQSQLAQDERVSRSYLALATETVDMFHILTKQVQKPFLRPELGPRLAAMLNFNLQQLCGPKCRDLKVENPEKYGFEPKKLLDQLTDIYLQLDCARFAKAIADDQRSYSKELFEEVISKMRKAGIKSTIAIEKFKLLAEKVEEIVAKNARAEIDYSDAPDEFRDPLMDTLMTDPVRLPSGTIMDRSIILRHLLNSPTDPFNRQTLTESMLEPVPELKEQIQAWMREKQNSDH

Cullin 1 (human) [6] = biological target: Cullin 1 (human) (UniProt Q13616); experiment: Flag co-IP, MudPIT MS, MG132
[7] = biological target: Bromodomain and WD-repeat domain-containing protein 1. WDR9 (human) (UniProt Q9NSI6); experiment: Flag co-IP, MudPIT MS, DMSO
[8] = biological target: Bromodomain and WD-repeat domain-containing protein 2, WDR 1 I (human) (UniProt Q9BZH6); experiment: Flag co-IP, MudPIT MS, DMSO
[9] = biological target: Bromodomain and WD-repeat domain-containing protein 3, BRWD3 (human) (UniProt Q6RI45); experiment: Flag co-IP, MudPIT MS, DMSO
Cullin 4A (human) = Cullin 4A (human) (UniProt Q13619); experiment: Flag co-IP, MudPIT MS, DMSO
Cullin 4B (human) = Cullin 4B (human) (UniProt Q13620); experiment: Flag co-IP, MudPIT MS, DMSO
Elongin B (human) = Elongin B (human) (UniProt Q15370); experiment: Flag co-IP, MudPIT MS, DMSO
[10] = biological target: Kelch domain-containing protein 2, KLDC2 (human) (UniProt Q9Y2U9); experiment: Flag co-IP, MudPIT MS, DMSO
SKP1 (human) = SKP1 (human) (UniProt P63208); experiment: Flag co-IP, MudPIT MS, DMSO
SKP1 (human), sequence (P63208 2-163 limits assumed): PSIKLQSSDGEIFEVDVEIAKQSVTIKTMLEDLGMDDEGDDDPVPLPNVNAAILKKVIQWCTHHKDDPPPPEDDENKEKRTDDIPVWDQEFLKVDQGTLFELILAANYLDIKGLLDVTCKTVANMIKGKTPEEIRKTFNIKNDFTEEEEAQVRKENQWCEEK

[11] = biological target: CUL4- and DDB I-associated WDR protein 2, WDR26 (human) (UniProt Q9H7D7); experiment: Flag co-IP, MudPIT MS, MG132
CUL4- and DDB I-associated WDR protein 2, WDR26 (human), sequence (Q9H7D7 whole entry): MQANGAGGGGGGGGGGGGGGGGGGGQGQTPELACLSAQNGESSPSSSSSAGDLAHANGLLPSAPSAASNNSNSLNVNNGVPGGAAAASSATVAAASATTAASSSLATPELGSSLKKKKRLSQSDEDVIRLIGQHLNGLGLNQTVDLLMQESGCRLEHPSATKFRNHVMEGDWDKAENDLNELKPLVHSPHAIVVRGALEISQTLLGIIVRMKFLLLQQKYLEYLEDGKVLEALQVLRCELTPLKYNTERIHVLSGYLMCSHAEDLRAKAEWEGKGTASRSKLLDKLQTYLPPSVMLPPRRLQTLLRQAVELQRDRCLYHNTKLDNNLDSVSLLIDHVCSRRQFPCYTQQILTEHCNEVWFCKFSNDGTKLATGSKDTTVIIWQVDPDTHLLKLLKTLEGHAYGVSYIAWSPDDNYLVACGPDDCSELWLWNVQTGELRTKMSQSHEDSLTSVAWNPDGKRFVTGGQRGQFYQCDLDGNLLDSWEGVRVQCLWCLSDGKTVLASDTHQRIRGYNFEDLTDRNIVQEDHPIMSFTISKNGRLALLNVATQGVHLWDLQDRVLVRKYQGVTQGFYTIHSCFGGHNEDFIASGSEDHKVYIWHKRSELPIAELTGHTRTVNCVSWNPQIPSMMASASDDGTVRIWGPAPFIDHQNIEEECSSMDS

[12] = biological target: Kelch-like protein 22. KLEIL22 (human) (UniProt Q53GT1); experiment: Flag co-IP, MudPIT MS, MG132
Kelch-like protein 22. KLEIL22 (human), sequence (Q53GT1 2-634 limits assumed): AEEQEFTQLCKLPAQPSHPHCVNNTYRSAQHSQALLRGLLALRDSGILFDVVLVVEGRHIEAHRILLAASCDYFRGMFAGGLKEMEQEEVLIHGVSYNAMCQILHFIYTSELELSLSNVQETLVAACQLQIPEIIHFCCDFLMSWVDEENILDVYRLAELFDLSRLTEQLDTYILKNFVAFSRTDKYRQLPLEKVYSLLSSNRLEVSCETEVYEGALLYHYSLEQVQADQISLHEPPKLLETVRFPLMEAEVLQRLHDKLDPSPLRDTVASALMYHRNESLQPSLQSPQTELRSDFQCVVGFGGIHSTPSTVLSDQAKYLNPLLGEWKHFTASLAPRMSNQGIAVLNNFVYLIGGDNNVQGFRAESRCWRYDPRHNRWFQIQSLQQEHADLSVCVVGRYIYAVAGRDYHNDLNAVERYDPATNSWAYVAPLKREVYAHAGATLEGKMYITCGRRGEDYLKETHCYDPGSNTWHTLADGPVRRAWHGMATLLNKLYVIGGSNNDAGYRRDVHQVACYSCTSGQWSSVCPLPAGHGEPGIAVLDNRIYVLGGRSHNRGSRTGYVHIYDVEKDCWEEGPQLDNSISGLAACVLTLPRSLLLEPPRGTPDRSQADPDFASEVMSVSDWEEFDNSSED

[13] = biological target: RING-box protein 1, RBX1 (human) (UniProt P62877); experiment: Flag co-IP, MudPIT MS, MG132
RING-box protein 1, RBX1 (human), sequence (P62877 whole entry): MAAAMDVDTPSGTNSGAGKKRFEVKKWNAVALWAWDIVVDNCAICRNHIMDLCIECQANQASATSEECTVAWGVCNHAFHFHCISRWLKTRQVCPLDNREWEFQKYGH

[14] = biological target: Von Hippel-Lindau disease tumor suppressor, VHL (human) (UniProt P40337); experiment: Flag co-IP, MudPIT MS, MG132
Von Hippel-Lindau disease tumor suppressor, VHL (human), sequence (P40337 whole entry): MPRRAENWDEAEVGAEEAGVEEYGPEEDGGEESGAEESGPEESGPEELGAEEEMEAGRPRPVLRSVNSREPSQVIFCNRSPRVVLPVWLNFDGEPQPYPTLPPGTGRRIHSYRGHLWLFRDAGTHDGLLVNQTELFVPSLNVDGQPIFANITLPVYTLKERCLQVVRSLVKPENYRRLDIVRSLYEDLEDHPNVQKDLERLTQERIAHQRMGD

Elongin C (human) = Elongin C (human) (UniProt Q15369); experiment: Flag co-IP, MudPIT MS, DMSO
Elongin C (human), sequence (Q15369 whole entry): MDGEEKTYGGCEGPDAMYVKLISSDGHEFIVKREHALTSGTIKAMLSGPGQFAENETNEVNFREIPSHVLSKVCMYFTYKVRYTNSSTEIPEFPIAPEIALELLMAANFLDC

[15] = biological target: Galectin-3 binding protein. LG3BP (human) (UniProt Q08380); experiment: Flag co-IP, MudPIT MS, DMSO
[16] = biological target: WD repeat protein Anti homolog. WDR68 (human) (UniProt P61962); experiment: Flag co-IP, MudPIT MS, DMSO
WD repeat protein Anti homolog. WDR68 (human), sequence (P61962 whole entry): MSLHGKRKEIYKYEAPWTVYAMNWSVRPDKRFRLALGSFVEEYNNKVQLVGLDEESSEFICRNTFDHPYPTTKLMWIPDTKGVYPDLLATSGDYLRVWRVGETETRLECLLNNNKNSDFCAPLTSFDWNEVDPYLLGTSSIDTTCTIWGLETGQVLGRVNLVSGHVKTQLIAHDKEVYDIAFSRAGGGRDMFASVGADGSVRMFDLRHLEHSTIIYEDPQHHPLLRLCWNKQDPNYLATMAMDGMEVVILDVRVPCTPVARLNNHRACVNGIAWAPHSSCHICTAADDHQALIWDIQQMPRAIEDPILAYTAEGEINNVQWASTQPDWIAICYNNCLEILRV

endogenous UFD1 (human) = biological target: T1, endogenous UFD1 (human) (UniProt Q92890); experiment: Flag co-IP, 293 cells, MudPIT MS
T1 sequence (looked up): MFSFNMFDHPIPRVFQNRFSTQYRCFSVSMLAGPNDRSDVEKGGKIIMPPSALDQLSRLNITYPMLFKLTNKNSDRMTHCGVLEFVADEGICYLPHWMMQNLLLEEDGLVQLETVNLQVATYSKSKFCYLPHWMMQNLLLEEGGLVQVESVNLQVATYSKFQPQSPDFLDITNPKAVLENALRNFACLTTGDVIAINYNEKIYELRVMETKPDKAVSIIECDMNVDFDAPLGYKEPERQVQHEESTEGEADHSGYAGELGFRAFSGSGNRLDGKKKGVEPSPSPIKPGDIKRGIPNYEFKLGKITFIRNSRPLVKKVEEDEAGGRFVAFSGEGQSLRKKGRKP

Kelch repeat and BTB domain-containing protein 7, KBTB7 (human), sequence (Q8WVZ9 whole entry, the tested form may be a part): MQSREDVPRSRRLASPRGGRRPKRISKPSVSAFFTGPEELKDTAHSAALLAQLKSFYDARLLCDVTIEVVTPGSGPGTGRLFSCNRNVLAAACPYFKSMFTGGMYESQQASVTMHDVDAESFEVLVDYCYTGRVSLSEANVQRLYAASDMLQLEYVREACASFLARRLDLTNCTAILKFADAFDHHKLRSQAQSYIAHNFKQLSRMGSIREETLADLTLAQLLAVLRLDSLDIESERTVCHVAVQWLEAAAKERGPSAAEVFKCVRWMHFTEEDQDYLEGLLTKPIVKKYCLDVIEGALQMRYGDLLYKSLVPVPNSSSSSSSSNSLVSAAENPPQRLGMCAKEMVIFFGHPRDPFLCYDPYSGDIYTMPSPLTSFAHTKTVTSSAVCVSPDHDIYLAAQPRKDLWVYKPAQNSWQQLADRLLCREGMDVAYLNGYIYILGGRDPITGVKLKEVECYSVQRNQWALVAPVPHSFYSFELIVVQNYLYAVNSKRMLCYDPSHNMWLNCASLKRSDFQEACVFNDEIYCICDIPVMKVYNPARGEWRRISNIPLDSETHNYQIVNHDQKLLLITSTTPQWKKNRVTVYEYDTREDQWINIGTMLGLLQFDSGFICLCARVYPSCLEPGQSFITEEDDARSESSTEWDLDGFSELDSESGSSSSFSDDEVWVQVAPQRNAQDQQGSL

Substance: Flag-SAKS1 (from UniProt Q04323 1-297)
- abundance factor (AF) [1]: 2.9
- sequence count [1]: 2
- spectrum count [1]: 2
- abundance factor (AF) (Cullin 1 (human) [2]): 6.5
- sequence count (Cullin 1 (human) [2]): 5
- spectrum count (Cullin 1 (human) [2]): 7
- abundance factor (AF) [3]: 2.1
- sequence count [3]: 2
- spectrum count [3]: 2
- abundance factor (AF) [4]: 3.5
- sequence count [4]: 2
- spectrum count [4]: 3
- abundance factor (AF) [5]: 1.1
- sequence count [5]: 2
- spectrum count [5]: 2
- abundance factor (AF) (Cullin 1 (human) [6]): 1.5
- sequence count (Cullin 1 (human) [6]): 2
- spectrum count (Cullin 1 (human) [6]): 3

Substance: Flag-UBXD7 (from UniProt O94888 1-489)
- abundance factor (AF) [7]: 2.2
- sequence count [7]: 3
- spectrum count [7]: 4
- abundance factor (AF) [8]: 2.1
- sequence count [8]: 2
- spectrum count [8]: 2
- abundance factor (AF) [9]: 1.4
- sequence count [9]: 2
- spectrum count [9]: 2
- abundance factor (AF) (Cullin 4A (human)): 9.8
- sequence count (Cullin 4A (human)): 5
- spectrum count (Cullin 4A (human)): 6
- sequence count (Cullin 4B (human)): 7
- spectrum count (Cullin 4B (human)): 9
- abundance factor (AF) (Elongin B (human)): 16
- sequence count (Elongin B (human)): 2
- spectrum count (Elongin B (human)): 2
- abundance factor (AF) [10]: 9.3
- sequence count [10]: 2
- spectrum count [10]: 3
- abundance factor (AF) (SKP1 (human)): 30.7
- sequence count (SKP1 (human)): 3
- spectrum count (SKP1 (human)): 4
- abundance factor (AF) [11]: 7.2
- sequence count [11]: 9
- spectrum count [11]: 17
- abundance factor (AF) [12]: 2.8
- sequence count [12]: 8
- spectrum count [12]: 8
- abundance factor (AF) [13]: 4.1
- sequence count [13]: 2
- spectrum count [13]: 2
- abundance factor (AF) [14]: 2.1
- sequence count [14]: 2
- spectrum count [14]: 2

Substance: Flag-UBXD8 (from UniProt Q96CS3 1-445)
- abundance factor (AF) (Elongin C (human)): 7
- sequence count (Elongin C (human)): 2
- spectrum count (Elongin C (human)): 5
- abundance factor (AF) [15]: 0.8
- spectrum count [15]: 3
- abundance factor (AF) [16]: 0.9
- sequence count [16]: 2
- spectrum count [16]: 2
- sequence count (endogenous UFD1 (human)): 7
- sequence coverage (endogenous UFD1 (human)): 29.4%
- spectrum count (endogenous UFD1 (human)): 82
